From US20180155451A1 (published 2018)

T1: FcγRIIa R (FcγRIIa, allotype R, Arg at position 131), extracellular domain with C-terminal His tag (human, UniProt P12318 34-217)
T1 construct: extracellular domain; soluble receptor used as Biacore analyte; also called 2aR; FcgRIIa R
T1 sequence (looked up): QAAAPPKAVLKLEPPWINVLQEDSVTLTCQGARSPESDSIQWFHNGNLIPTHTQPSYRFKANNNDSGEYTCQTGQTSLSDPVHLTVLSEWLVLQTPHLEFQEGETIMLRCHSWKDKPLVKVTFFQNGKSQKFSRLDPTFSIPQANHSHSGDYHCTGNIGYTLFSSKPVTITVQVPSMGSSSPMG

T2: FcγRIIb, extracellular domain with C-terminal His tag (human, UniProt P31994 43-217)
T2 construct: extracellular domain; soluble receptor used as Biacore analyte; also called 2b; FcgRIIb
T2 sequence (looked up): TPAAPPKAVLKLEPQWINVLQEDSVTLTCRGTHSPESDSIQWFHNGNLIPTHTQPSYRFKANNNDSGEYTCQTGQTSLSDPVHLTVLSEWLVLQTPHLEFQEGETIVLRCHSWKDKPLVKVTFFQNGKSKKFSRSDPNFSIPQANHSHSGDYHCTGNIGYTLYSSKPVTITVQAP

T3: FcγRIIb extracellular domain with C-terminal His tag (human, UniProt P31994 43-217)
T3 construct: extracellular domain; Soluble receptor expressed in FreeStyle293 cells; analyte in Biacore; also called FcgRIIb; 2b; not shown: His tag at the C terminus
T3 sequence (looked up): T2 sequence (looked up)

B1: heterodimerized antibody GpH7-A5/GpH7-B3 variant Y300_10E/GpL16-k0 (antibody, human IgG1, kappa)
heavy 1: not shown
heavy 2: not shown
light: DIVMTQSPLSLPVTPGEPASISCQASESLVHSNRNTYLHWYLQKPGQSPQLLIYKVSNRFSGVPDRFSGSGSGTDFTLKISRVEAEDVGVYYCSQNTHVPPTFGQGTKVEIERTVAAPSVFIFPPSDEQLKSGTASVVCLLNNFYPREAKVQWKVDNALQSGNSQESVTEQDSKDSTYSLSSTLTLSKADYEKHKVYACEVTHQGLSSPVTKSFNRGEC
notes: He Ab: anti-glypican-3 IgG1, alteration in one H chain only; also called He Ab
B2: heterodimerized antibody GpH7-A5/GpH7-B3 variant V266_08L/GpL16-k0 (antibody, human IgG1, kappa)
heavy 1: not shown
heavy 2: not shown
light: B1 light
notes: as for B1
B3: GpH7-A5/GpH7-B3 variant P329_01G/GpL16-k0 (antibody, human IgG1, kappa)
heavy 1: not shown
heavy 2: not shown
light: B1 light
notes: He Ab: heterodimerized anti-glypican-3 IgG1, substitution in one H chain only; also called He Ab P329G
B4: GpH7-A5/GpH7-B3 variant I336_15Y/GpL16-k0 (antibody, human IgG1, kappa)
heavy 1: not shown
heavy 2: not shown
light: B1 light
notes: He Ab: heterodimerized anti-glypican-3 IgG1, substitution in one H chain only; also called He Ab I336Y
B5: GpH7-A5/GpH7-B3 variant A330_14T/GpL16-k0 (antibody, human IgG1, kappa)
heavy 1: not shown
heavy 2: not shown
light: B1 light
notes: He Ab: heterodimerized anti-glypican-3 IgG1, substitution in one H chain only; also called He Ab A330T
B6: GpH7-A5/GpH7-B3 variant E333_18N/GpL16-k0 (antibody, human IgG1, kappa)
heavy 1: not shown
heavy 2: not shown
light: B1 light
notes: He Ab: heterodimerized anti-glypican-3 IgG1, substitution in one H chain only; also called He Ab E333N
B7: GpH7-A5/GpH7-B3 variant L328_01G/GpL16-k0 (antibody, human IgG1, kappa)
heavy 1: not shown
heavy 2: not shown
light: B1 light
notes: He Ab: heterodimerized anti-glypican-3 IgG1, substitution in one H chain only; also called He Ab L328G
B8: GpH7-A5/GpH7-B3 variant A330_20W/GpL16-k0 (antibody, human IgG1, kappa)
heavy 1: not shown
heavy 2: not shown
light: B1 light
notes: He Ab: heterodimerized anti-glypican-3 IgG1, substitution in one H chain only; also called He Ab A330W
B9: GpH7-A5/GpH7-B3 variant E333_11K/GpL16-k0 (antibody, human IgG1, kappa)
heavy 1: not shown
heavy 2: not shown
light: B1 light
notes: He Ab: heterodimerized anti-glypican-3 IgG1, substitution in one H chain only; also called He Ab E333K
B10: GpH7-A5/GpH7-B3 variant A330_16H/GpL16-k0 (antibody, human IgG1, kappa)
heavy 1: not shown
heavy 2: not shown
light: B1 light
notes: He Ab: heterodimerized anti-glypican-3 IgG1, substitution in one H chain only; also called He Ab A330H
B11: GpH7-A5/GpH7-B3 variant A330_13S/GpL16-k0 (antibody, human IgG1, kappa)
heavy 1: not shown
heavy 2: not shown
light: B1 light
notes: He Ab: heterodimerized anti-glypican-3 IgG1, substitution in one H chain only; also called He Ab A330S
B12: GpH7-A5/GpH7-B3 variant I336_02A/GpL16-k0 (antibody, human IgG1, kappa)
heavy 1: not shown
heavy 2: not shown
light: B1 light
notes: He Ab: heterodimerized anti-glypican-3 IgG1, substitution in one H chain only; also called He Ab I336A
B13: GpH7-A5/GpH7-B3 variant A330_08L/GpL16-k0 (antibody, human IgG1, kappa)
heavy 1: not shown
heavy 2: not shown
light: B1 light
notes: He Ab: substitution in one H chain only; also called He Ab A330L
B14: GpH7-A5/GpH7-B3 variant I336_20W/GpL16-k0 (antibody, human IgG1, kappa)
heavy 1: not shown
heavy 2: not shown
light: B1 light
notes: He Ab: heterodimerized anti-glypican-3 IgG1, substitution in one H chain only; also called He Ab I336W
B15: GpH7-A5/GpH7-B3 variant A330_18N/GpL16-k0 (antibody, human IgG1, kappa)
heavy 1: not shown
heavy 2: not shown
light: B1 light
notes: He Ab: heterodimerized anti-glypican-3 IgG1, substitution in one H chain only; also called He Ab A330N

Molecular target: T1, FcγRIIa R (FcγRIIa, allotype R, Arg at …)
Assay: Biacore SPR; He/Con_2aR divided by He/Con_2b (FcγRIIb)

IIaR/IIb (He_2aR/2b)	Binder
0.8	B1
0.6	B2

Molecular target: T4, FcγRIa extracellular domain with C-terminal His tag (human, UniProt P12314 16-292)
T4 construct: extracellular domain; Soluble receptor expressed in FreeStyle293 cells; analyte in Biacore; also called FcgRI; FcgRIa; not shown: His tag at the C terminus
Assay: SPR (Biacore); He/Con_1a divided by He/Con_2b (FcγRIIb)
Method: (§1) The heterodimerized antibodies He Abs in which one of the H chains was introduced with an alteration were assayed for their binding activities to each activating FcγR and inhibitory FcγR according to the method described in Example 4. […] The activating FcγRs in FIGS. 26, 27, 28, and 29 are FcγRIa, FcγRIIa (R), FcγRIIa (H), and FcγRIIIa, respectively.
(§2) Analysis of interaction between objective antibody and the FcγR was carried out using Biacore T100 (GE Healthcare). HBS-EP+ (GE Healthcare) was used as the running buffer, and the measurement temperature was set to 25° C. Chips produced by immobilizing the antigen peptide by the amine coupling method to a Series S Sencor Chip CM5 (GE Healthcare), or alternatively, chips produced by allowing preliminarily biotinylated antigen peptides to interact with and immobilize onto a Series S Sensor Chip SA (certified) (GE Healthcare) were used. Antibodies of interest were captured onto an antigen peptide-immobilized chip, and allowed to interact to each FcγR diluted with running buffer. To regenerate and repeatedly use the chip, the antibodies captured on the chip were washed off by reacting 10 mM glycine-HCl, pH 1.5.

T4 sequence (P12314 16-292): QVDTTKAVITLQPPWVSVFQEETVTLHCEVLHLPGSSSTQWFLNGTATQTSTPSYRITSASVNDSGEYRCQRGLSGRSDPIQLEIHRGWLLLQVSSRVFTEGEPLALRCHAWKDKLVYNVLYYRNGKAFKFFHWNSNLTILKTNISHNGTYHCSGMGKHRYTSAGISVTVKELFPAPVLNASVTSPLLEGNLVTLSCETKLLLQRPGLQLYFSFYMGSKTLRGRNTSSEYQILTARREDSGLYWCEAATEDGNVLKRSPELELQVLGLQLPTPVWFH

He_1a/2b (Ia/IIb)	Binder
2.42	B3
1.51	B4
1.35	B5
1.27	B6
1.21	B7
1.41	B8
1.27	B9
1.21	B10
2.22	B11
1.25	B12
1.52	B13
4.28	B14
1.67	B15

Molecular target: T1, FcγRIIa R (FcγRIIa, allotype R, Arg at …)
Assay: Biacore SPR; binding relative to GpH7-A5/GpH7-B3/GpL16-k0 (=100)

He/Con_2aR (IIaR binding)	Binder
107 % of control	B1
142 % of control	B2

Molecular target: T2, FcγRIIb, extracellular domain with …
Assay: as above

He/Con_2b (IIb binding)	Binder
134 % of control	B1
236 % of control	B2

Molecular target: T4, FcγRIa extracellular domain with …
Assay: SPR (Biacore), antibody captured on antigen peptide chip, FcγR as analyte; binding relative to GpH7-A5/GpH7-B3/GpL16-k0 = 100
Method: as §1, §2

He/Con_1a (Ia binding)	Binder
101 % of control (control = 100)	B3
103 % of control (control = 100)	B4
105 % of control (control = 100)	B5
96.6 % of control (control = 100)	B6
97.2 % of control (control = 100)	B7
108 % of control (control = 100)	B8
102 % of control (control = 100)	B9
106 % of control (control = 100)	B10
91.5 % of control (control = 100)	B11
106 % of control (control = 100)	B12
107 % of control (control = 100)	B13
86.7 % of control (control = 100)	B14
106 % of control (control = 100)	B15

Molecular target: T3, FcγRIIb extracellular domain with …
Assay: as above
Method: as §1, §2

He/Con_2b (IIb binding)	Binder
41.7 % of control (control = 100)	B3
68.2 % of control (control = 100)	B4
77.9 % of control (control = 100)	B5
76.1 % of control (control = 100)	B6
80.2 % of control (control = 100)	B7
76.1 % of control (control = 100)	B8
80.6 % of control (control = 100)	B9
87.6 % of control (control = 100)	B10
41.3 % of control (control = 100)	B11
84.9 % of control (control = 100)	B12
70.5 % of control (control = 100)	B13
20.3 % of control (control = 100)	B14
63.7 % of control (control = 100)	B15
